This passage reports Km, kcat and kcat/Km results from publication PMC7334433, “Enzymatic characterization and structure-function relationship of two chitinases, LmChiA and LmChiB, from Listeria monocytogenes” (Heliyon, 2020).

This series deals with CC(=O)N[C@H]1[C@H](Oc2ccc([N+](=O)[O-])cc2)O[C@H](CO)[C@@H](O[C@@H]2O[C@H](CO)[C@@H](O)[C@H](O)[C@H]2NC(C)=O)[C@@H]1O. In words: purified protein. The settings on record: 20 mM sodium phosphate pH 7.4, 37 °C (standard assay), substrate 0.05–0.45 mM.

For orientation: Km means the concentration of substrate that gives half-maximal velocity. What is called kcat is the maximal rate divided by the concentration of active sites. One may read the kcat/Km as the turnover number divided by the Michaelis constant. Turning to LmChiA (Listeria monocytogenes EGD-e), the Michaelis constant (Km) worked out at 1622 ± 13 µM, the kcat was 33.6 ± 1 s⁻¹ and the kcat/Km was determined as 20000 M⁻¹ s⁻¹.
Taken in the same sequence, the figures for LmChiB (Listeria monocytogenes EGD-e) were 375 ± 27 µM, 72.1 ± 1.4 s⁻¹ and 190000 M⁻¹ s⁻¹.
